Test: soluble on expression in E. coli; label from the status in PepcDB or PDB records

Sequence	soluble on expression in E. coli
MGSDKIHHHHHHMRGIVCVHKFCSRFSRTAYFTYGWMMNIELISLLKGNMGLTLTSELAADICVAAYRMETLAQSRDIAQIKPRYNGRIVFAVERIEDITEEIKHLHRTHWNETEGHRHRLPFQPDYETFIRYEQAGRYLLFTVRSEGKLLGNCAMYLDKSAHTQTLIATEDTLYLLPEARRGTTAKRFVRYVENAMKLLGVREINITVKTVNKAARFFRLLGYRHVENGLTKILEIENV	not soluble
MRDIDGGTMGYRVGVDIGGSFTDFAVFDEDNGEIKSLKVFSRPDQPGEEVIAGVRMLGERYGIQPEQITYFTHGTTVGINTVIQRKGLKLALFTTENFSDVLELARLKTPDMYHLLSRRPAPLVKRSMVFGIAERMGPDGTVRAPLDEASVERAVRQALDAGAEGIVVSLLHAYRNPAHELRVREIAEALA	not soluble
MKVIINGKEFDIPKGVRFGELSHEIEKAGIEFGCTDGQCGVCVARVIKGMECLNEPSEEEEETLWRVGAVDEDQRLTCQLVIEKEDCDEIVIESED	not soluble
SGFEFHGYARSGVIMNDSGASTKSGAYITPAGETGGAIGRLGNQADTYVEMNLEHKQTLDNGATTRFKVMVADGQTSYNDWTASTSDLNVRQAFVELGNLPTFAGPFKGSTLWAGKRFDRDNFDIHWIDSDVVFLAGTGGGIYDVKWNDGLRSNFSLYGRNFGDIDDSSNSVQNYILTMNHFAGPLQMMVSGLRAKDNDERKDSNGNLAKGDAANTGVHALLGLHNDSFYGLRDGSSKTALLYGHGLGAEVKGIGSDGALRPGADTWRIASYGTTPLSENWSVAPAMLAQRSKDRYADGDSYQWATFNLRLIQAINQNFALAYEGSYQYMDLKPEGYNDRQAVNGSFYKLTFAPTFKVGSIGDFFSRPEIRFYTSWMDWSKKLNNYASDDALGSDGFNSGGEWSFGVQMETWF	soluble
MGSSQSTPKVQDANADAERIRKAQHSMAAAGGGSQCPLTPEQRAAASGENCGAGGACPVGADKASINPLNNELEHPNQKPAPDQPFALPTKREKSTIPKAGTETETWTYPSPQMFWNAMLKKGWRWQDDSLSKSDMENIISIHNANNEEAWREVLKWENLLHPECAEPKLKSFKGDAKNLSPRARFRNLFLGYDLPFDRHDWIVDRCGTKQVQYVIDYYDGGAVDPSSKLFTILDVRPAVNDIGNIWDRMVVAYWRFKFETLGFTPSLPIPPTEGHNVNH	not soluble
MIKLKTPNSMEIAEQPAVITYVPELNAFRGKFLGLSGYCDFVSDSIQGLQKEGELSLREYLEDCKAAGIEPYARTEKIKTFTLRYPESLSERLNNAAAQQQVSVNTYIIETLNERLNHL	not soluble
GSGMKETAAAKFERQHMDSPDLGTTLLEQYCHRTTIGNFSGPYTYCNTTLDQIGTCWPQSAPGALVERPCPEYFNGIKYNTTRNAYRECLENGTWASRVNYSHCEPILDDFQRKYDLHY	soluble
MSLPVCYYLDATGGDDNNSGLAPDEAWKSLEKLRGVKLLPGNKVLLKRGEVFNGELEITGQGIPEDRIYIDAYGDDERKPCIVGYDTSLYAARICNSDYITMQNLEIVNTGRQPLPYRSGLKIECMDYGVSQNIVVNNVTVRDVNGSLVKEKGGGCGIYIVNGGEKKISTFNRLTIENCHILRCTRNAMIWAAYSDRQNWHPSKHTVIRGNLIEEVPGDGIVPIGCDSTLIEYNVMRDCPDMLPDTEAAAGIWPWSCDNTLVQFNEVSGHKAPWDAQGFDSDWNCRGTVIQYNYSHDNYGGLVLVCNDGTADASFNVGNLGTIVRYNVSIGDGVRPEPTRAGMFSPAVHLAGPVKDSRITRNIIHVNRKPAADIDRTMITLDSWGGYPDSTFISGNIFYAPESSRFQLTESTHNFFEGNYYLGRFEKLPEDGKACQSAEIYQKEVLAKDENGYQGLALLMDTVEVTGVKGVFVNKEAIENFFSRLEKEGHHHHHH	soluble
MRIARRAVEEWVEHGRRLDVEAGGKLGRPGAAFVTLERRSGDGWELRGCIGVVRPVLPLVEAVVTAAVDAASSDPRFEPLSREELDRVRVEVTVLGSMEPLPKKPHERPALVEVGLHGLYVEKPPYAGLLLPQVAVDEGWDPILFLTWACIKAGLPGTCWLREDVEIYRFRAAVWRETEPRGPVVRRDLAREAAAKGVNARVSTHISSCKSLEHHHHHHTHISSCKSLEHHHHHHTHISSCKSLEHHHHHHTHISSCKSLEHHHHHHTHISSCKSLEHHHHHHTHISSCKSLEHHHHHHTHISSCKSLEHHHHHH	not soluble
MGSDKIHHHHHHMRKNRITEMLATASTIVLDGALATELEARGCDLTDPLWSAKVLVENPALIYQVHFDYFKAGAQCAITASYQATPQGFEARGYSEAESLALIAKSVQLAAQARDDYRRDNTQAGTLLVAGSVGPYGAYLADGSEYRGDYQLPQADMMAFHRPRIAALHEAGADLLACETLPSFAEIEALIALLAEFPQAQAWFSFTLRDSEHLSDGTPLRTVLERVNACSQVVAVGLNCIALEKVTPALMHLSSLTDLPLVVYPNSGEQYDAVTKTWSSAHDTACSLTAYLPEWQTAGARLIGGCCRTTPADIAGIARCCQQ	not soluble
MFSKVNNQKMLEDCFYIRKKVFVEEQGVPEESEIDEYESESIHLIGYDNGQPVATARIRPINETTVKIERVAVMKSHRGQGMGRMLMQAVESLAKDEGFYVATMNAQCHAIPFYESLNFKMRGNIFLEEGIEHIEMTKKLTSLN	not soluble
METAWSNILNYKNVSDRYILTEKDKKGAFTRQYFEVYEARLKELKPRILENAEREIGKGKFTHSQLSDAKQDEEIFVVGVIVKRIAARPSILKSLLNEDKVAYDDYEEDAEEDEVKRYAGSIEDRIELESDKQTVRLEGNISMDECATGCCVGVLGKLGKEGVFHVNRLVWPSVKVPKKVAVDGTIAFVSGLDLTGDLEDDRLTISGLEFMADWMNVQVGNENQCPPIDRLVVIGPLVETKSNGCDVQSVVRTLTLSRAEKHSSTASLITVDKIINSIAEKPLVNTVDVTPGVGDPCSSMWPLPPIHRVCLPRCGMSDKKVNLVTNPYEFEVNGLRVMTMSGENVSELLRTSLKWTGADAIENIIKWQHVAPNCPDTLDAFPVAERDPLIMDITPHVIICGNQPHAEFRHIPIDGSNCLVVCLPKFSKTRVACFLNLSDLSLKWQNFDHQF	not soluble
MKKHIKNLFLLAAICLTVACKEQLYTGLTEKEANQMQALLLSNDVNVSKEMDKSGNMTLSVEKEDFVRAITILNNNGFPKKKFADIEVIFPPSQLVASPSQENAKINYLKEQDIERLLSKIPGVIDCSVSLNVNNNESQPSSAAVLVISSPEVNLAPSVIQIKNLVKNSVDDLKLENISVVIKSSSGQDG	not soluble
MVVIIPPKLSVSTLMGVLKGRSAIRLFNKFPHVRKKQWGNSFWARGYFVDTVGVNEEIIRRYVRHQDKQDQEHEAQLSLQMM	soluble
ITRDEVGELARVMNEMASQIERNLARISAEKNRLDTILRGMGEGLMVSDAGGTVTLVNPAFLELFGLTQSVEGRQIIEIARFPELHETFRAVVSSRSEHVEEMTLPLGDEKQVLTHWVPLMEE	not soluble
MTLGARLVAPMIILLLFIPIELVKAEVITLTPETFSDKIKEKDTAWFVKFCVPWCKHCKKLGNLWEDLGKAMEGDDEIEVGEVDCGTSRAVCTKVEIHSYPTFMLFYNGEEVSKYKGKRDVESLKAFVVEETEKAAEKAQLEDKEL	soluble
MGSDKIHHHHHHMEELREAFEEGKPVILIDRNRENEADFVFPAQLITEDVVSFFVTYGKGLFCVTADEEDLLKRGFVKLSSNYGANYFVPVDWGTGTGISALERAETCRKLAEGRYFHEFRYPGHVTVIGGIGFQRRKGHTEASLEISELAGFSRHAVIVEILDEKGNSHNLDYVLKLSEKFSLPVLEMDDVWREFVKRKLLMKKKAEATLPTDFGVFKVVSFENHLDGKEHFAIVKEPLEDPVAVRIHSECVTGDVLSSLRCDCGSQLANFLRYMSAHGGILIYLRQEGRGIGLSNKIAAYSLQDKGLDTVEANRVLGFSEDERDYAPAAQILKALGIERVLLFTNNQRKTVGLEKYGIEVVETKRLYGRVTPHNRFYLSTKMKKLGHELEEIFREVNS	not soluble
MGQMFGVACIDEQSGIVGQAWNNNSVRYISIDEDAVITIQSGPVVGKVAVSNDKTLAYGATINGANTVYVYKKSQAWVPSRLSDISSGTDVWAVALNGDNQWLYYVTANGRLGRIEVDNPTHNEILFEHNDFSGGPFAYIAYSAFEDCFYVTTDKNKILKVWVKEDGTHAYEQINQNNTGTTDGFLADEAKFQYLRGLTIDEDGNIFVCQGDNSHVIRKIAYDENMEKRYVTTVLGTSTVHGTDDGSPDIALFNGPQDISYDGNGGYWIAMRYEPALRKYSIELEHHHHHH	not soluble
MTTIFKLLRLPKNTIFQVLRQFKCLDLIAFSVCSKYAKSCVMYSTTSNKQKTIRIEFDDTIQFDLSPITKHICLFELLADQRNVLRKNFNECEMIINGNNFIRTEWSIAGFAIKDWMKHFLDIFGGPKIDIISFSGKGFNRTWFPRDLFRIFNAQSFYCVIDFILKILRSFQYPESLTTCKGKSLGRKPLNTIFILNFKSVKYYGRHQFQLTLNQLLAMNISTLKLLDSAISSKNLNFFLKHWLNGSNKRLEVLEIFGLNAYSPTIIFKNVAYQVILEDEIFSIYNEVFTFGYEIERSCDETRAAIFINSMPEVSHYCFRMIVGEVPNYLIIY	not soluble
PIDLITVGSLIELQDSQNPFQYWIVSVIENVGGRLRLRYVGLEDTESYDQWLFYLDYRLRPVGWCQENKYRMDPPSEIYPLKMASEWKCTLEKSLIDAAKFPLPMEVFKDHADL	soluble
MLVKSMNFDPLKEAEKIKDEIISWRRDFHMHPELGFEEERTSKIVEEHLREWGYKIKRAGTGIIADIGDGGKTIALRADMDALPIQEENDVPYKSRVPGKMHACGHDAHTAMLLGAAKIIAEHSSELENKVRLIFQPAEEGGNGALKMIEAGALEGVDAIFGIHVWAELPSGIVGIREGPFLAGVGKFIAKIIGKGGHGAAPHFSIDPIPAAADAVLALQRIVAREVDPLESAVVTVGKIQGGTAFNVIPQYVELEGTFRFFTQELGKFLERRIREIIENTAKAHNCKAEVNTEILGPPTINDEKMVKFVAETAKALGLKVGEVRKTLGGEDFAYYLEKVPGAFIALGIRNEEKGIIYPHHHPKFDVDEDVLYLGTALEVALAFNFKG	soluble
MSLPNIFVEELVHTPIEKQVIEIVERKGIGHPDSLADGMAEAMSRELSREYIRRFGAVLHHNTDETQIVAGRSNPQFGGGEVIEPIYVLLVGRATKFFNGEYIPTDKIALKAARDYIRQHMQNLDPELDVVFNVRLGEGSTDLQDVFRRKSGNVALANDTSFGIGFAPLSETERLVFNVERRIYEEFRKKNPAIGEDVKVMGLREKDRISLTIAAAFVDRYVANIKEYDAIKEELENFVKEISSEYTEREVEVFVNTADDYETGCVYLTVTGTSAENGDDGSVGRGNRCNGLITPGRPMSMEASSGKNPINHVGKIYNLLANQIAARIAEEVEGVEEVYVRILSQIGKPINEPKALSVQVIPKSGYDISKLERPARDIAEEMIANVGKITDMVIEGKVRTFEGHHHHHH	soluble
GGRGGFGGRGGFGGRGGFG	soluble
MGSDKIHHHHHHMRMLRRGSRGNDVAEVQVRLSELGYIPGPIDGIFGPKTEAAVIRFQKDRGLNPDGIVGPLTYQALFQPGPQPGYVLYTIKAGDTFYKLSLAFGVSLNEIIAANPGVDPYQLRIGQQVRIPKGGPGRRHTFSAWIPYWVQQEAMAVVRQHAELMTTLSPFWYELTPTGDLLLYPNAEDSSLIEFARSRGIELIPLVANNYDRQLISTVLNNPDLRQRNIAQIVNKVRSMNYTGIEIDYENIAAADRELFVLFLRELKAALAPYNKKLYVAIQAKTRADEPVSIGHDYGGIGAAVDVVRLMLYDYSWDNPGPIAPASWIRQVLDYAVTVIPPAKLEAGLPTYGYDWGTTRRSITYDDAIRLAQQHGAQIIQDPQRGPHFNYTDADGIAHQVWFTNALNFATFVDIVNQYNLRGISIWHPGGDDPQIYTVIQDRLE	not soluble

Reference: the DeepSol protein solubility set
